Data published in patent US20040248184A1 (published 2004).

B1: rat Reg-binding protein comprising 364 amino acids (cDNA isolated in Example 5, expression vector pCI-167.1) (receptor)
chain: MTGYTMLRNGGVGNGGQTCMLRWSNRIRLTWLSFTLFIILVFFPLIAHYYLTTLDEADEAGKRIFGPRAGNELCEVKHVLDLCRIRESVSEELLQLEAKRQELNSEIAKLNLKIEACKKSIENAKQDLLQLKNVISQTEHSYKELMAQNQPKLSLPIRLLPEKDDAGLPPPKVTRGCRLHNCFDYSRCPLTSGFPVFVYDSDQFAFGSYLDPLVKQAFQATVRANVYVTENAAIACLYVVLVGEIQEPAVLQPADLEKQLHSLPHWRTDGHNHVIINLSRKSDTQNLLYNVSTGRAMVAQSTFYAAQYRAGFDLVVSPLVHAMSEPNFMEIPRVTIFSLGRGEEEQEKLGVWRGRPPPGWGAGP
notes: also called 1.6 kbp cDNA clone
B2: rat Reg receptor (rat Reg-binding protein, rat homologue of human EXTL3/EXTR1), 919 amino acids, with N-terminal HA tag (receptor)
chain: YPYDVPDYAMTGYTMLRNGGVGNGGQTCMLRWSNRIRLTWLSFTLFIILVFFPLIAHYYLTTLDEADEAGKRIFGPRAGNELCEVKHVLDLCRIRESVSEELLQLEAKRQELNSEIAKLNLKIEACKKSIENAKQDLLQLKNVISQTEHSYKELMAQNQPKLSLPIRLLPEKDDAGLPPPKVTRGCRLHNCFDYSRCPLTSGFPVFVYDSDQFAFGSYLDPLVKQAFQATVRANVYVTENAAIACLYVVLVGEIQEPAVLQPADLEKQLHSLPHWRTDGHNHVIINLSRKSDTQNLLYNVSTGRAMVAQSTFYAAQYRAGFDLVVSPLVHAMSEPNFMEIPPQVPVKRKYLFTFQGEKIESLRSSLQEARSFEEEMEGDPPADYDDRIIATLKAVQDSKLDQVLVEFTCKNQPKPSLPTEWALCGEREDRLELLKLSTFALIITPGDPSLLISSGCATRLFEALEVGAVPVVLGEQVQLPYHDMLQWNEAALVVPKPRVTEVHFLLRSLSDSDLLAMRRQGRFLWETYFSTADSIFNTVLAMIRTRIQIPAAPIREEVAAEIPHRSGKAAGTDPNMADNGDLDLGPVETEPPYASPKYLRNFTLTVTDCYRSWNSAPGPFHLFPHTPFDPVLPSEAKFLGSGTGFRPIGGGAGGSGKEFQAALGGNVQREQFTVVMLTYEREEVLMNSLERLNGLPYLNKVVVVWNSPKLPSEDLLWPDIGVPIMVVRTEKNSLNNRFLPWNEIETEAILSIDDDAHLRHDEIMFGFRVWREARDRIVGFPGRYHAWDIPHQSWLYNSNYSCELSMVLTGAAFFHKYYAYLYSYVMPQAIRDMVDEYINCEDIAMNFLVSHITRKPPIKVTSRWTFRCPGCPQALSHDDSHFHERHKCINFFVKVYGYMPLLYTQFRVDSVLFKTRLPHDKTKCFKFI
notes: also called rEXTL3; pCI•rEXTL3
B3: rat Reg protein (Reg I) (ligand, UniProt P10758 22-165, looked up)
chain: QEAEEDLPSARITCPEGSNAYSSYCYYFMEDHLSWAEADLFCQNMNSGYLVSVLSQAEGNFLASLIKESGTTAANVWIGLHDPKNNRRWHWSSGSLFLYKSWDTGYPNNSNRGYCVSVTSNSGYKKWRDNSCDAQLSFVCKFKA
modifications: as tracer labelled with 125I using Bolton-Hunter reagent; used unlabelled as competitor
notes: mature; also called rat Reg I
B4: human REG protein (REG Iα) (ligand, UniProt P05451 23-166, looked up)
chain: QEAQTELPQARISCPEGTNAYRSYCYYFNEDRETWVDADLYCQNMNSGNLVSVLTQAEGAFVASLIKESGTDDFNVWIGLHDPKKNRRWHWSSGSLVSYKSWGIGAPSSVNPGYCVSLTSSTGFQKWKDVPCEDKFSFVCKFKN
notes: mature; also called human REG Iα; REG Ia

Tests used:
[1] = biological target: B3; experiment: binding of 10 nM [125I] rat Reg I to transiently transfected COS-7 cells on ice for 2 h, gamma counting, with (+) or without (-) 100-fold unlabelled rat Reg I
Procedure: Specifically, first, [¹²⁵I] rat Reg I stock solution (50 ng/μl=˜3.33 μM, 2.7×10⁵ cpm/μl) was diluted to 10 nM using DMEM. In addition, a diluted solution in which non-labeled Reg I stock solution (2250 ng/μl=150 μM) was added at 100-folds the concentration of [¹²⁵I] Reg I (1 μm), was prepared.
3 ml of 2.5×10⁵ cells/ml transfected COS cells were seeded onto 6 well plates and cultured at 37° C. for 2 days. After washing with ice-cold DMEM, 3 ml DMEM containing [¹²⁵I] rat Reg I was added (10 nM, final concentration). In a competitive inhibition experiment, 100-fold amount of non-labeled Reg I coexisted. After keeping on ice for 2 hours and then washing 3 times with DMEM, 1 ml/well of [100 mM Tris-HCl (pH 7.6), 1 mM EDTA, 1% Triton X-100] was added to lyze the cells, and [¹²⁵I] radioactivity was counted by using a γ-counter.

[2] = biological target: B4; experiment: competition binding on CHO cells stably expressing the rat Reg receptor (line RegR-#3): unlabelled human REG is varied against 125I rat Reg protein (50 ng/ml), gamma counting
Procedure: (§1) The rat Reg-binding protein (also called EXTL3/EXTR1) expression vector constructed in Example 8 or the control vector was introduced into COS-7 cells by electroporation and expressed transiently. CHO cells expressing the Reg receptor stably were isolated as described above. The cells (7.5×10⁵ cells) were washed with RPMI1640 (Roswell Park Memorial institute 1640 medium) and incubated on ice in the presence of ¹²⁵I labeled rat Reg protein (50 ng/ml, 1.5×10⁵ cpm/ml) with various concentrations of unlabeled rat Reg or human REG protein in RPMI1640 containing 1% fetal calf serum for 2 h. After washing with RPMI1640 three times, cells were solubilized by 1 ml of 100 mM Tris-HCl (pH 7.6), 1 mM EDTA and 1% Triton X-100. The radioactivity of the lysate was-determined by a γ-counter (Cobra, Packard). As a result, rat Reg binding protein expression vector-introduced-COS-7 cells bound to ¹²⁵I-labeled rat Reg protein and the binding was decreased by the addition of unlabeled Reg protein (FIG. 6).

[3] = biological target: B3; experiment: radioligand binding of 125I rat Reg protein to CHO cells stably expressing the rat Reg receptor
Procedure: as §1

[4] = biological target: B2; experiment: displacement of 125I rat Reg protein from CHO cells stably expressing the rat Reg receptor
Procedure: as §1

[5] = biological target: B2; experiment: displacement of 125I rat Reg protein (competitor tracer) from CHO cells stably expressing the rat Reg receptor
Procedure: as §1

B1
binding result [1]: binds

B2
binding result [2]: binds | Kd [3]: 4.41 nM

B3
Ki [4]: 1.61 nM

B4
Ki [5]: 7.41 nM
